The values below come from paper PMC11672316, “Identification of ANXA1 as a Novel Upstream Negative Regulator of Notch1 Function in AML” (Advanced Science, 2024).

Bridge positions count the residues as written; N and C are the ends. Ends that are not written are not given here. Peptide text beside a SMILES is read from it.

As a reminder, the Kd is the concentration at which binding is half-saturated.

One data set deals with T1, ANXA1 (Homo sapiens, UniProt P04083).
T1 construct: made in house; host or cells: E. coli BL21
T1 sequence (P04083 1-346): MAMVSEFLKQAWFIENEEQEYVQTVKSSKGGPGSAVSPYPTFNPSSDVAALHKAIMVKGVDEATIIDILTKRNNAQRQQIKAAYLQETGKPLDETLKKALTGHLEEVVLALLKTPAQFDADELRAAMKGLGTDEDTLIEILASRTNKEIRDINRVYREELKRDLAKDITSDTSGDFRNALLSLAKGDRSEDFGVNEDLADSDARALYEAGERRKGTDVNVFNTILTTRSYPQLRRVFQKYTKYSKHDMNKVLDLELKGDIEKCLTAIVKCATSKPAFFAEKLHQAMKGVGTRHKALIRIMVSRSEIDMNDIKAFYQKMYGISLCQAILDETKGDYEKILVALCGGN
Briefly: BLI analysis, NICD peptides to immobilized ANXA1. It is filed as binding. Particulars: for Koff: Octet Red96, ANXA1 immobilized on SSA sensor, peptides in SD buffer. The method, then: (§1) AlphaFold2 and ClusPro servers were used to dock NICD and ANXA1.^[ [35] ^] The predictions were tested by GST‐pull down assay, bio‐layer interferometry (BLI) analysis, and chemical cross‐linking coupled with mass spectrometry. Details of these procedures are described in Materials and Methods (Supporting Information).
(§2) For bio‐layer interferometry (BLI) analyses performed by Octet Red96 system (Sartorius), purified NICD protein was immobilized on SA sensor (Sartorius) after labeling with Sulfo-NHS-Biotin (EZ-Link) and dialysis. To determine binding kinetics, five concentrations of purified ANXA1 protein were prepared with PBST (PBS containing 0.02% Tween-20) and measured from low to high concentrations by NICD-immobilized biosensors to obtain the association and dissociation sensorgram data. For detection of the interaction between protein and small molecular peptides, purified ANXA1 protein was immobilized on SSA sensor (Sartorius) to detect the binding kinetics of NICD peptides, which were diluted in SD buffer (PBST plus 0.1% w v^-1 BSA). The kinetic parameters Kon, Koff and KD were determined using Octct data analysis software.
Background: Biolayer interferometry detects binding as a change in optical thickness at a sensor tip.

Data set [1] concerns the target intracellular domain of Notch1 (NICD), protein used in BLI and cross-linking. The experiment in a line: BLI; NICD with full-length ANXA1 or the C-terminal domain of ANXA1 at increasing concentrations; who was immobilised is not told in the main text (scheme in Figure 2D).
The test system of another data set is NICD (Δ2,050−2,060). Briefly: BLI analysis of ANXA1 binding NICD (Δ2,050−2,060). To be noted: Figure S6E. Also noted: species or system human. On the procedure: as §2
Figure S6. ANXA1 (214−228) and NICD (2,050−2,060) mediate the protein-protein interaction, related to Figure 2J. (A) mRNA expression of ANXA1 detected by qPCR in KG1a-sgANXA1 and HL60-sgANXA1 cells. […] (C) The cell proliferation ability detected by CCK8 assay after 96 hours of culture of KG1a or HL60 cells stably transfected with sgANXA1 or sgControl plasmids. (D) The cell proliferation ability detected by CCK8 assay after 96 hours of culture of KG1a-sgANXA1 and HL60-sgANXA1 cells transiently transfected with ANXA1 (Δ214−228) plasmid. […]

The test system of a further data set is NICD. The experiment in a line: BLI analysis, ANXA1 proteins to immobilized NICD. It is filed as binding, human. Particulars: for binding affinity with NICD: Figure 2E; for Koff / Kon / Kd: Octet Red96, biotinylated NICD immobilized on SA sensor; for Koff / Kon: ANXA1 protein in PBST; for Kd: five concentrations of ANXA1 protein in PBST (PBS containing 0.02% Tween-20). On the procedure:
as §1, §2

The subject of a further data set is Notch1. The experiment in a line: GST-pull down assay of Notch1 from KG1a cell lysate. The data set is classed as binding, human. Particulars: western blotting, 4°C overnight; Figure S4C. On the procedure:
For GST-pull down assay, the purified GST fusion proteins were incubated with precleared GST resin (Solarbio) for 5 hours at 4°C. The precipitation was washed four times with PBS and captured the Notch1 protein from prepared cell lysates at 4°C overnight. The complexes were washed four times with PBS before being eluted in SDS-gel loading buffer and detected by western blotting.
Figure S4. GST pull down analysis of the interaction between ANXA1 and Notch1, related to Figure 2. (A) Schematic diagram of GST-tagged fusion protein structure of ANXA1 full-length, C-terminal, and N-terminal domain. (B) Coomassie blue-stained SDS gel image of GST-tagged fusion protein of full-length ANXA1, and N-terminal, and C-terminal domains of ANXA1. (C) Western blotting of Notch1 and ANXA1 expression in complexes pulled-down by GST-ANXA1 in sgANXA1#3 and sgControl cells of KG1a.

Data set [2] has as its target T2, GST-tagged full-length ANXA1 (Annexin A1) (human, UniProt P04083 1-346).
T2 construct: Annexin A1 (ANXA1), human, full length; In the BLI with peptides it was immobilised on an SSA sensor; also called GST-ANXA1; source: E. coli BL21, purified (GST resin)
T2 sequence (looked up): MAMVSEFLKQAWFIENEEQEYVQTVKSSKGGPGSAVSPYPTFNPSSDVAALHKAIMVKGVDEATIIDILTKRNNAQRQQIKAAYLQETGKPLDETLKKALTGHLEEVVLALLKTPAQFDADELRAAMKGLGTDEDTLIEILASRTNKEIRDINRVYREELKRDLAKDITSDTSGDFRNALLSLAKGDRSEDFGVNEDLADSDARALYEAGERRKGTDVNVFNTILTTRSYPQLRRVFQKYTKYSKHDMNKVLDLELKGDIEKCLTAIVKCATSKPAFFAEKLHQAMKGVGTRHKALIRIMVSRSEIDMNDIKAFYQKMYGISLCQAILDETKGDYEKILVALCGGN
The experiment in a line: BLI; Octet Red96; purified ANXA1 protein immobilised on SSA sensor; NICD peptides diluted in SD buffer (PBST plus 0.1% w/v BSA). Particulars: both partners purified.

Turning to RKKRRQRRR [TAT, reference compound], the “cell damage” value in the data set on HL60 cells and in the data set on KG1a cells was “barely caused cell damage” in each case.
“KSALHWAAAVNNVDAAVVLLKNGANKDMQNNR [NICD-5l, linear peptide, NICD 2029~2060]”: the “inhibition of cell proliferation” value with HL60 cells (HL60, CCK8, 72 h, Figure 2K, means ± s.e.m. of three independent experiments) is “significantly inhibited the proliferation of KG1a and HL60 cells in a dose‐dependent manner”; with KG1a cells (KG1a, CCK8, 72 h, Figure 2K, means ± s.e.m. of three independent experiments), “significantly inhibited the proliferation of KG1a and HL60 cells in a dose‐dependent manner”. In addition, on ANXA1 (Figures 2I and S5B), the “binding affinity with GST-ANXA1” value is “increased the binding affinity with GST‐ANXA1 in a dose‐dependent manner”. Moreover, on ANXA1, the Koff is listed as 1.27×10^-2 1 s^-1.
Take `CSCC[C@H](NC(=O)[C@H](CC(=O)O)NC(=O)[C@H](CCCCN)NC(=O)[C@H](CC(N)=O)NC(=O)[C@H](C)NC(=O)CNC(=O)[C@H](CC(N)=O)NC(=O)[C@H](CCCCN)NC(=O)[C@H](CC(C)C)NC(=O)[C@@H]1CSSC[C@H](NC(=O)[C@H](C)NC(=O)[C@H](CO)NC(=O)[C@@H](N)CCCCN)C(=O)N[C@@H](Cc2c[nH]cn2)C(=O)N[C@@H](Cc2c[nH]c3ccccc23)C(=O)N[C@@H](C)C(=O)N[C@@H](C)C(=O)N[C@@H](C)C(=O)N[C@@H](C(C)C)C(=O)N[C@@H](CC(N)=O)C(=O)N[C@@H](CC(N)=O)C(=O)N[C@@H](C(C)C)C(=O)N[C@@H](CC(=O)O)C(=O)N[C@@H](C)C(=O)N[C@@H](C)C(=O)N[C@@H](C(C)C)C(=O)N[C@@H](C(C)C)C(=O)N1)C(=O)N[C@@H](CCC(N)=O)C(=O)N[C@@H](CC(N)=O)C(=O)N[C@@H](CC(N)=O)C(=O)N[C@@H](CCCNC(=N)N)C(=O)O` [NICD-5c] (H-KSACHWAAAVNNVDAAVVCLKNGANKDMQNNR-OH; disulfide 4-19): the Koff at ANXA1 is 1.08×10^-2 1 s^-1.

B1: GST-tagged full-length Annexin A1 (ANXA1) (natural protein)
chain: MAMVSEFLKQAWFIENEEQEYVQTVKSSKGGPGSAVSPYPTFNPSSDVAALHKAIMVKGVDEATIIDILTKRNNAQRQQIKAAYLQETGKPLDETLKKALTGHLEEVVLALLKTPAQFDADELRAAMKGLGTDEDTLIEILASRTNKEIRDINRVYREELKRDLAKDITSDTSGDFRNALLSLAKGDRSEDFGVNEDLADSDARALYEAGERRKGTDVNVFNTILTTRSYPQLRRVFQKYTKYSKHDMNKVLDLELKGDIEKCLTAIVKCATSKPAFFAEKLHQAMKGVGTRHKALIRIMVSRSEIDMNDIKAFYQKMYGISLCQAILDETKGDYEKILVALCGGN
In data set [1], B1 gave a Kd of 18.4 µM.

B2: ANXA1: Annexin A1, Ca2+-dependent phospholipid-binding protein (protein)
chain: MAMVSEFLKQAWFIENEEQEYVQTVKSSKGGPGSAVSPYPTFNPSSDVAALHKAIMVKGVDEATIIDILTKRNNAQRQQIKAAYLQETGKPLDETLKKALTGHLEEVVLALLKTPAQFDADELRAAMKGLGTDEDTLIEILASRTNKEIRDINRVYREELKRDLAKDITSDTSGDFRNALLSLAKGDRSEDFGVNEDLADSDARALYEAGERRKGTDVNVFNTILTTRSYPQLRRVFQKYTKYSKHDMNKVLDLELKGDIEKCLTAIVKCATSKPAFFAEKLHQAMKGVGTRHKALIRIMVSRSEIDMNDIKAFYQKMYGISLCQAILDETKGDYEKILVALCGGN
modifications: left off: GST, end not stated, kept
In the case of B2, the “interaction with NICD lacking 2050–2060” value with NICD (Δ2,050−2,060) is “the interaction between NICD and ANXA1 was also lost due to the deletion of 2050–2060 amino acid domain of NICD”.

B3: Full-length ANXA1: purified full-length Annexin A1 protein (protein)
chain: MAMVSEFLKQAWFIENEEQEYVQTVKSSKGGPGSAVSPYPTFNPSSDVAALHKAIMVKGVDEATIIDILTKRNNAQRQQIKAAYLQETGKPLDETLKKALTGHLEEVVLALLKTPAQFDADELRAAMKGLGTDEDTLIEILASRTNKEIRDINRVYREELKRDLAKDITSDTSGDFRNALLSLAKGDRSEDFGVNEDLADSDARALYEAGERRKGTDVNVFNTILTTRSYPQLRRVFQKYTKYSKHDMNKVLDLELKGDIEKCLTAIVKCATSKPAFFAEKLHQAMKGVGTRHKALIRIMVSRSEIDMNDIKAFYQKMYGISLCQAILDETKGDYEKILVALCGGN
modifications: left off: GST, end not stated, kept
notes: purified full-length Annexin A1 protein
B3: in the data set on NICD, the “binding affinity with NICD” value is listed as “dose‐dependently increased the binding affinity with NICD”, the Koff is 2.88×10^-2 1 s^-1, the Kon was 1.57×10^3 1 Ms^-1 and the Kd was found to be 18.4 µM.

B4: GST-tagged ANXA1: GST-tagged fusion protein of full-length ANXA1 (protein)
chain: MAMVSEFLKQAWFIENEEQEYVQTVKSSKGGPGSAVSPYPTFNPSSDVAALHKAIMVKGVDEATIIDILTKRNNAQRQQIKAAYLQETGKPLDETLKKALTGHLEEVVLALLKTPAQFDADELRAAMKGLGTDEDTLIEILASRTNKEIRDINRVYREELKRDLAKDITSDTSGDFRNALLSLAKGDRSEDFGVNEDLADSDARALYEAGERRKGTDVNVFNTILTTRSYPQLRRVFQKYTKYSKHDMNKVLDLELKGDIEKCLTAIVKCATSKPAFFAEKLHQAMKGVGTRHKALIRIMVSRSEIDMNDIKAFYQKMYGISLCQAILDETKGDYEKILVALCGGN
modifications: left off: GST, end not stated, kept
Regarding B4, the “pull-down of Notch1 from cell lysate” value with Notch1 is reported as “Notch1 in the cell lysate could be pulled down by GST‐tagged ANXA1”.

B5: GST-tagged C-terminal domain of ANXA1 (domain or fragment)
chain: PSSDVAALHKAIMVKGVDEATIIDILTKRNNAQRQQIKAAYLQETGKPLDETLKKALTGHLEEVVLALLKTPAQFDADELRAAMKGLGTDEDTLIEILASRTNKEIRDINRVYREELKRDLAKDITSDTSGDFRNALLSLAKGDRSEDFGVNEDLADSDARALYEAGERRKGTDVNVFNTILTTRSYPQLRRVFQKYTKYSKHDMNKVLDLELKGDIEKCLTAIVKCATSKPAFFAEKLHQAMKGVGTRHKALIRIMVSRSEIDMNDIKAFYQKMYGISLCQAILDETKGDYEKILVALCG
With B5, in the data set on NICD, the “binding affinity with NICD” value is “dose‐dependently increased the binding affinity with NICD”, the Koff is 1.68×10^-2 1 s^-1, the Kon was 3.15×10^3 1 Ms^-1 and the Kd came out at 5.32 µM. Further, the Kd in data set [1] worked out at 5.32 µM.

B6: NICD-5l peptide (peptide)
peptide: KSALHWAAAVNNVDAAVVLLKNGANKDMQNNR
notes: also called NICD-5 linear peptide; source: synthetic peptide (solid phase, Wang resin)
B6: the Kd in data set [2] worked out at 154 µM.

B7: NICD-5c peptide (peptide)
peptide: KSACHWAAAVNNVDAAVVCLKNGANKDMQNNR-OH
modifications: bridge 4-19; also: cyclisation chemistry not given here
notes: also called NICD-5 cyclic peptide; source: synthetic peptide (solid phase, Wang resin)
As to B7, the Kd in data set [2] is 223 µM.
